{
  "source": "paper PMC6152381",
  "about": "“The C5 Variant of the Butyrylcholinesterase Tetramer Includes a Noncovalently Bound 60 kDa Lamellipodin Fragment” (Molecules : A Journal of Synthetic Chemistry and Natural …, 2017)",
  "key": {"[1]": {"biological_target": "mouse anti-human BChE monoclonal antibody B2 18-5 (mouse)", "sequence (heavy, as listed by the source, chain 1 of 2)": "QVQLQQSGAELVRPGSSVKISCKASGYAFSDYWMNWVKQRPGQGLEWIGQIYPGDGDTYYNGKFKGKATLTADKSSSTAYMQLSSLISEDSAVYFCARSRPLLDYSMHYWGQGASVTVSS", "sequence (light, as listed by the source, chain 2 of 2)": "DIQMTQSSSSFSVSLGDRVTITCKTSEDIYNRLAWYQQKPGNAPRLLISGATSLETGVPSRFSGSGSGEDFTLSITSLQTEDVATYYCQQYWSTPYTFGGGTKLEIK", "assay": "capture on immobilised antibody, activity assay of the unbound supernatant; hupresin-purified BChE (C4 and C5) in 0.02 M procaine, 0.02 M TrisCl pH 7.5 rotated with 0.04 mL B2 18-5 Sepharose beads at room temperature for 4 h"}, "[2]": {"biological_target": "the molecule itself", "assay": "native gel or EMSA; pure human BChE from Cohn Fraction IV-4 on a 4-30% nondenaturing polyacrylamide gradient gel, 4 °C, stained for BChE activity"}},
  "data": [
    {"molecule": "human butyrylcholinesterase (BChE) (from UniProt P06276 29-602) (enzyme)", "values": [
      {"measurement": "percent bound", "setting": "[1]", "value": 97, "unit": "%"}
    ]},
    {"molecule": "human butyrylcholinesterase (BChE) (enzyme, human (endogenous in plasma), UniProt P06276 29-602, looked up, 9 N-linked glycans, each subunit has 574 amino acids; forty residues at the C-terminus are the tetramerization domain; also called C4; BChE tetramer; source: also purified from Cohn Fraction IV-4 (Q-ceramic ion exchange, hupresin)) EDDIIIATKNGKVRGMNLTVFGGTVTAFLGIPYAQPPLGRLRFKKPQSLTKWSDIWNATKYANSCCQNIDQSFPGFHGSEMWNPNTDLSEDCLYLNVWIPAPKPKNATVLIWIYGGGFQTGTSSLHVYDGKFLARVERVIVVSMNYRVGALGFLALPGNPEAPGNMGLFDQQLALQWVQKNIAAFGGNPKSVTLFGESAGAASVSLHLLSPGSHSLFTRAILQSGSFNAPWAVTSLYEARNRTLNLAKLTGCSRENETEIIKCLRNKDPQEILLNEAFVVPYGTPLSVNFGPTVDGDFLTDMPDILLELGQFKKTQILVGVNKDEGTAFLVYGAPGFSKDNNSIITRKEFQEGLKIFFPGVSEFGKESILFHYTDWVDDQRPENYREALGDVVGDYNFICPALEFTKKFSEWGNNAFFYYFEHRSSKLPWPEWMGVMHGYEIEFVFGLPLERRDNYTKAEEILSRSIVKRWANFAKYGNPNETQNNSTSWPVFKSTEQKYLTLNTESTRIMTKLRAQQCRFWTSFFPKVLEMTGNIDEAEWEWKAGFHRWNNYMMDWKNQFNDYTSKKESCVGL", "values": [
      {"measurement": "binding result", "setting": "[2]", "value": "binds"}
    ]}
  ]
}
